Results as given in doi:10.1101/2023.03.06.531442 (bioRxiv, 2023).

What was measured:
[1] = target: the molecule itself; assay: cryo-EM structure
[2] = target: the molecule itself; assay: TIRF microscopy of assembled microtubules

B1: mouse α-tubulin isotype α4A (natural protein)
chain: MRECISVHVGQAGVQMGNACWELYCLEHGIQPDGQMPSDKTIGGGDDSFTTFFCETGAGKHVPRAVFVDLEPTVIDEIRNGPYRQLFHPEQLITGKEDAANNYARGHYTIGKEIIDPVLDRIRKLSDQCTGLQGFLVFHSFGGGTGSGFTSLLMERLSVDYGKKSKLEFSIYPAPQVSTAVVEPYNSILTTHTTLEHSDCAFMVDNEAIYDICRRNLDIERPTYTNLNRLISQIVSSITASLRFDGALNVDLTEFQTNLVPYPRIHFPLATYAPVISAEKAYHEQLSVAEITNACFEPANQMVKCDPRHGKYMACCLLYRGDVVPKDVNAAIAAIKTKRSIQFVDWCPTGFKVGINYQPPTVVPGGDLAKVQRAVCMLSNTTAIAEAWARLDHKFDLMYAKRAFVHWYVGEGMEEGEFSEAREDMAALEKDYEEVGIDSYEDEDEGEE
- binding result [1]: binds

B2: recombinant mouse α4A/β2A tubulin heterodimer (complex)
chain 1: B1 chain
chain 2: […]
- binding result [2]: binds

B3: mouse α-tubulin isotype α1C (natural protein)
chain: MRECISIHVGQAGVQIGNACWELYCLEHGIQPDGQMPSDKTIGGGDDSFNTFFSETGAGKHVPRAVFVDLEPTVIDEVRTGTYRQLFHPEQLITGKEDAANNYARGHYTIGKEIIDLVLDRIRKLADQCTGLQGFLVFHSFGGGTGSGFTSLLMERLSVDYGKKSKLEFSIYPAPQVSTAVVEPYNSILTTHTTLEHSDCAFMVDNEAIYDICRRNLDIERPTYTNLNRLISQIVSSITASLRFDGALNVDLTEFQTNLVPYPRIHFPLATYAPVISAEKAYHEQLTVAEITNACFEPANQMVKCDPRHGKYMACCLLYRGDVVPKDVNAAIATIKTKRTIQFVDWCPTGFKVGINYQPPTVVPGGDLAKVQRAVCMLSNTTAIAEAWARLDHKFDLMYAKRAFVHWYVGEGMEEGEFSEAREDMAALEKDYEEVGADSAEGDDEGEEY
- binding result [1]: binds
